Measurements reported in article PMC10512297, “The Penicillium chrysogenum tom1 Gene a Major Target of Transcription Factor MAT1-1-1 Encodes a Nuclear Protein Involved in Sporulation”.

Assays:
[1] = target: T1, GST-MAT1-1-1;MAT1-2-1 (GST removed) (Penicillium chrysogenum;Penicillium …, UniProt B1GVB9;B1GVC0 1-342;1-303, |); experiment: EMSA; 4 uM each protein; complex faster than with GST-MAT1-2-1; EMSA: 20 ul reaction, 20 min at room temperature, native 4% polyacrylamide gel, 120 V 2-3 h; buffer, salt and pH not given (Ramsak et al. 2021 protocol); conditions: protein: recombinant;recombinant; tags: N-terminal GST;none (GST removed by TEV protease); label: 32P (probe); blunt
T1 sequence 1: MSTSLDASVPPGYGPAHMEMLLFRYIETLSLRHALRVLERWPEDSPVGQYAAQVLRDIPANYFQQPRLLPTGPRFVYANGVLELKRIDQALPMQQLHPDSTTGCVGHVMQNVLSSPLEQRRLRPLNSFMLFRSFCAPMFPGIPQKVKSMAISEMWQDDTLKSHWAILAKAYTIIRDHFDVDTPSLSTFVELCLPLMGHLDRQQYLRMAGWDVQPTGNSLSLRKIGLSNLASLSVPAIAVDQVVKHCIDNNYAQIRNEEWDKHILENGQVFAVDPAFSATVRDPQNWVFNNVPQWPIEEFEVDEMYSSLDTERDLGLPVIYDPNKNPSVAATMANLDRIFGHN
T1 sequence 2: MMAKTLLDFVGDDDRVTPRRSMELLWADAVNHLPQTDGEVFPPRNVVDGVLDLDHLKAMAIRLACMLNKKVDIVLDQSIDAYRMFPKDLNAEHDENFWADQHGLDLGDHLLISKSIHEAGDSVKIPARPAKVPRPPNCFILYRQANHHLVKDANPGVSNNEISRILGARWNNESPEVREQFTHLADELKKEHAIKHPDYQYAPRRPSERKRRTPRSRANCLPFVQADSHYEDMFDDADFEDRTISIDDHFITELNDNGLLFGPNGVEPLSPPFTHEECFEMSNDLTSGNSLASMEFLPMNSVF

GST-MAT1-1-1 = target: T2, GST-MAT1-1-1 (Penicillium chrysogenum, UniProt B1GVB9 1-342); experiment: EMSA; 2.5 uM protein; self-competition by unlabelled tom1-2; EMSA: 20 ul reaction, 20 min at room temperature, native 4% polyacrylamide gel, 120 V 2-3 h; buffer, salt and pH not given (Ramsak et al. 2021 protocol); conditions: protein: recombinant; tags: N-terminal GST; chain copies: 2; label: 32P (probe); blunt
T2 sequence: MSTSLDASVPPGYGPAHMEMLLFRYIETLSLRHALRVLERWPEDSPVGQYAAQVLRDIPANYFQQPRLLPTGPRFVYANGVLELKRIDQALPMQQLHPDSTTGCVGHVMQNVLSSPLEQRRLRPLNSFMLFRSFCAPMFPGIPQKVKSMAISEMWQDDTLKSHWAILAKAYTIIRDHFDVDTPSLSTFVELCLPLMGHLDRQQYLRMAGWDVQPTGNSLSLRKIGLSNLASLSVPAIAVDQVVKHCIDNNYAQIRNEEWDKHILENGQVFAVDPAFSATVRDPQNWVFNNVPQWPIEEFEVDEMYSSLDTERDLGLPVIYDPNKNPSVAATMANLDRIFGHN

GST-MAT1-2-1 = target: T3, GST-MAT1-2-1 (Penicillium chrysogenum PC3, UniProt B1GVC0 1-303); experiment: EMSA; 7 uM protein; more protein needed than for GST-MAT1-1-1; self-competition by unlabelled tom1-2; EMSA: 20 ul reaction, 20 min at room temperature, native 4% polyacrylamide gel, 120 V 2-3 h; buffer, salt and pH not given (Ramsak et al. 2021 protocol); conditions: protein: recombinant; tags: N-terminal GST; label: 32P (probe); blunt
T3 sequence: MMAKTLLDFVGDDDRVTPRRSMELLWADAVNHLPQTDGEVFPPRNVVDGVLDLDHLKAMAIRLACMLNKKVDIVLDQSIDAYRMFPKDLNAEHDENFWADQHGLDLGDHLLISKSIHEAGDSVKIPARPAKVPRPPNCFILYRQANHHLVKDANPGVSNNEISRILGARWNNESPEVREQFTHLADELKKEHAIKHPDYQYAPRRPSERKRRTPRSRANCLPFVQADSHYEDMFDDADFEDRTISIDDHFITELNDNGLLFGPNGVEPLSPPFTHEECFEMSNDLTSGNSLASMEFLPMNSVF

[2] = target: T4, GST-MAT1-1-1;GST-MAT1-2-1 (Penicillium chrysogenum;Penicillium …, UniProt B1GVB9;B1GVC0 1-342;1-303, |); experiment: EMSA; 4 uM each protein; slower migrating complex; EMSA: 20 ul reaction, 20 min at room temperature, native 4% polyacrylamide gel, 120 V 2-3 h; buffer, salt and pH not given (Ramsak et al. 2021 protocol); conditions: protein: recombinant;recombinant; tags: N-terminal GST;N-terminal GST; label: 32P (probe); blunt
T4 sequence 1: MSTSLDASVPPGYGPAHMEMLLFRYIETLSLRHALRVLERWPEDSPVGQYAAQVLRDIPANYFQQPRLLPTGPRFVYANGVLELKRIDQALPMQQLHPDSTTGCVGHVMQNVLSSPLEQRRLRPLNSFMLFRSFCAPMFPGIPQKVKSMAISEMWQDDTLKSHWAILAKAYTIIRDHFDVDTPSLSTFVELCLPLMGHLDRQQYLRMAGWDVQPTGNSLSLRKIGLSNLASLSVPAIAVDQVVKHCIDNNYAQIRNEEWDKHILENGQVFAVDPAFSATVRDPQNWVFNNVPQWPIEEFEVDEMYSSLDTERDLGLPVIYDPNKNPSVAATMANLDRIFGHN
T4 sequence 2: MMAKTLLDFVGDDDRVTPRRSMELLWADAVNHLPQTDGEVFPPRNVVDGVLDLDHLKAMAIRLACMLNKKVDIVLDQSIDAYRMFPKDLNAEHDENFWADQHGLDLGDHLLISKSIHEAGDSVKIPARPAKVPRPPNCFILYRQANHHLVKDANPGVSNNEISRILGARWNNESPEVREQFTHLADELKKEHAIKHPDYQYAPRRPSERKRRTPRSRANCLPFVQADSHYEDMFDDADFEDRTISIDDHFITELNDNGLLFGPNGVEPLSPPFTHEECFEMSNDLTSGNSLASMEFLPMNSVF

Measured: binding result

B1: tom1-2 (dsDNA)
DNA 1: TCACGTGATCTCTATTGAGAACAATAGAA
DNA 2: TTCTATTGTTCTCAATAGAGATCACGTGA
binds: all assays above
